# Experimental data: paper PMC4861493, “Functional Evolution in Orthologous Cell-encoded RNA-dependent RNA Polymerases*” (The Journal of Biological Chemistry, 2016)
# B1: QDE-1^Tte catalytic fragment (RNA-dependent RNA polymerase QDE-1 of Thielavia terrestris) (enzyme)
# chain: EVYARLQNIWPKFPRWLHAAPLALAWELTRICLHCKVDLEDPTLRYDPSWATSDMAALWRSLTQLDVFRGKSFPERPSAEAFAAALTGNFESRGNTVVLSASLEFNPSKTGPLFLLDMKPLRFDEGCRLTRRFGPDRFLEVLVPSPTALNAPSILKDGGAAQVIRWLTEKPHSLVGRQWQAFYTKDAGYRKPARELRLGPDAKATFKERVHFFAERGHDFRPAPLRTRAQLPPESPSRRRTEIRVSEMLDWLLQLEQNEYQPHLKLFSRIQLGLSKTFPTVTFEPNQIRHRTDDILSPAGKIMNDGIGRMSRSVARKIRDALGLSDIPSAIQGRMGSAKGMWLMDVADAGDDDWIETYPSQRKWKCDDADALHRTLEIRSVSTELKPAALNLQFLPVLEDRAKDKARMRRAIAARLMNDLKKQFDSQKAAVERPLQFRQWVNECTNSRSERVRHGQVPFLGGLPENKGEVLSFLLNSGFDRRQKYIQDLAFDLQKQRCEVLRTKLNIHVGRSAYMFMVVDFWGVLEENEVHVGFSSKFRDDVDDTTYMLLTDCDVLVARSPAHFPSDIQKVRAVFKPQLHALKDVIVFPAKGDIPLADKLSGGDYDGDMAWVCWDPDIVENFTNADMPKEPDLSAYLGKDKTTFGELVRDTGRTGAAARHEAVYDMINKSFQFAMQPNYLGICTNYKERVCYHNNSVSDGVALLLSTLVGKLVDQSKQGILFDAASWDRLRRERLGGRMSVEDPAYKGDVWAGAGEPRHIVDYLKFAVAKPTIDRELEELHKVMQASRRAGPDDDAAAHSWDPDLAVYFENFKALTAESRSLRAVLEALQNALGAVEHEWKVLMSKGSSSSLTYPEKVRQLHAKWCAIEPRAVGRAGSNRLDAKTAALLEQPFLADRGGAGTSYWALLRASTAFKAYYKTNPKFVWQMAGAQLAFIKAQMSSPGGGGGGGSDGMPLLVTPLMYAGLAPDGRFVKQYLARLECDGSQYPDDDLEGDGEDGGGGGGRGDDVD
# notes: QDE-1 ortholog of Thielavia terrestris, catalytic fragment; synthetic ORF from Genscript cloned into pFB-LIC-Bse; the monomer used for crystallization has 1,034 residues including the His tag and the tobacco etch virus protease cleavage site; numbers count on: the catalytic fragment; A TEV protease cleavage site lies between the His tag and the fragment and was not cut in the crystallized …
# Biological target: the molecule itself
# Test: crystal structure; QDE-1^Tte catalytic fragment apoenzyme, crystals grown at 30 °C in 100 mM Tris-HCl pH 8.0, 75 mM NaCl, 10% PEG 10,000, 5 mM MgCl2, 6 mM spermine; 3.19 Å; two non-crystallographic dimers (A/B, C/D) in the asymmetric unit
protein,measurement,value
B1,stoichiometry N,2
